This is an account of results in paper PMC10786891, “Massively parallel profiling of RNA-targeting CRISPR-Cas13d”.

First the molecules themselves.
T1: EsCas13d, nuclease-dead (Eubacterium siraeum, UniProt B0MS50, R295A;H300A;R849A;H854A)
T1 sequence: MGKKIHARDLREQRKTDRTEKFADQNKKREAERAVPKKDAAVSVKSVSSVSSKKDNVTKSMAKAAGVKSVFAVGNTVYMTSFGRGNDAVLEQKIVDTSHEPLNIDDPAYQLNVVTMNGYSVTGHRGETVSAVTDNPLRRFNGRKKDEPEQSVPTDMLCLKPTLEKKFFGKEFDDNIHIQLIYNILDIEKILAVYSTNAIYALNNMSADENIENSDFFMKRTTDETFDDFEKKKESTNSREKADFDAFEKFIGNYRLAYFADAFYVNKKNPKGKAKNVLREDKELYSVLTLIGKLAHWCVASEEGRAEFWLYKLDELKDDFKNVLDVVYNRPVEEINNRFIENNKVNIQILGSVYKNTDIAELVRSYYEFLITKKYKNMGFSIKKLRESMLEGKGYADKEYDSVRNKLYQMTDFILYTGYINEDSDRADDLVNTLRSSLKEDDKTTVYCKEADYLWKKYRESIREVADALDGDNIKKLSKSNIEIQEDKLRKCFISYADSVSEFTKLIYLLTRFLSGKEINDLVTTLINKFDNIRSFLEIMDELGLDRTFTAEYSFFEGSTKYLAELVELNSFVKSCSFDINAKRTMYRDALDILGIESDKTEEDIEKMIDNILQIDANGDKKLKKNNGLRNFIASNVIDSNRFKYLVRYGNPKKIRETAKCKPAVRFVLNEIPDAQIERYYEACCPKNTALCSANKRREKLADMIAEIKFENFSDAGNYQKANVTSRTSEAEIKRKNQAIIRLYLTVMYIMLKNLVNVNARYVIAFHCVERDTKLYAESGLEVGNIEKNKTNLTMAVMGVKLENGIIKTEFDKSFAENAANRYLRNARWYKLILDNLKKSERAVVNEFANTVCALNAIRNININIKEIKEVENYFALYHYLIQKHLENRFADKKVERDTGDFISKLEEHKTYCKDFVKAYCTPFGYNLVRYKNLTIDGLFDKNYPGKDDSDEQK

B1: target 1 insG 3' of 6,insG 3' of 2 (mixed)
RNA 1: CACCCGUGCAAAAAUGCAGGGGUCUAAAACUGAGCGGAUAACCUCUCUAUGG
RNA 2: GGGAAUGGAUCCACAUCUACGAAUUCGUACCAUAGAGAGGUUAUCCGGCUCGACCGAGAUCGGAAGAGCACACGU
B2: target 1 G15U,A16C (mixed)
RNA 1: CACCCGUGCAAAAAUGCAGGGGUCUAAAACUGAGCGGAUAACCUCUCUAUGG
RNA 2: GGGAAUGGAUCCACAUCUACGAAUUCGUACCAUAGCUAGGUUAUCCGCUCACCGAGAUCGGAAGAGCACACGU
B3: target 1 insU 3' of 18,insA 3' of 2 (mixed)
RNA 1: CACCCGUGCAAAAAUGCAGGGGUCUAAAACUGAGCGGAUAACCUCUCUAUGG
RNA 2: GGGAAUGGAUCCACAUCUACGAAUUCGUACCAUAUGAGAGGUUAUCCGCUCAACCGAGAUCGGAAGAGCACACGU
B4: target 1 C6U,C21U (mixed)
RNA 1: CACCCGUGCAAAAAUGCAGGGGUCUAAAACUGAGCGGAUAACCUCUCUAUGG
RNA 2: GGGAAUGGAUCCACAUCUACGAAUUCGUACUAUAGAGAGGUUAUCUGCUCACCGAGAUCGGAAGAGCACACGU
B5: target 1 insU 3' of 18,insG 3' of 1 (mixed)
RNA 1: CACCCGUGCAAAAAUGCAGGGGUCUAAAACUGAGCGGAUAACCUCUCUAUGG
RNA 2: GGGAAUGGAUCCACAUCUACGAAUUCGUACCAUAUGAGAGGUUAUCCGCUCAGCCGAGAUCGGAAGAGCACACGU
B6: target 1 U8A,A20U (mixed)
RNA 1: CACCCGUGCAAAAAUGCAGGGGUCUAAAACUGAGCGGAUAACCUCUCUAUGG
RNA 2: GGGAAUGGAUCCACAUCUACGAAUUCGUACCUUAGAGAGGUUAACCGCUCACCGAGAUCGGAAGAGCACACGU
B7: target 1 del16 (mixed)
RNA 1: CACCCGUGCAAAAAUGCAGGGGUCUAAAACUGAGCGGAUAACCUCUCUAUGG
RNA 2: GGGAAUGGAUCCACAUCUACGAAUUCGUACCAUAGGAGGUUAUCCGCUCACCGAGAUCGGAAGAGCACACGU
B8: target 1 C6A,G12A (mixed)
RNA 1: CACCCGUGCAAAAAUGCAGGGGUCUAAAACUGAGCGGAUAACCUCUCUAUGG
RNA 2: GGGAAUGGAUCCACAUCUACGAAUUCGUACCAUAGAGAGAUUAUCAGCUCACCGAGAUCGGAAGAGCACACGU
B9: target 1 U8G,A14C (mixed)
RNA 1: CACCCGUGCAAAAAUGCAGGGGUCUAAAACUGAGCGGAUAACCUCUCUAUGG
RNA 2: GGGAAUGGAUCCACAUCUACGAAUUCGUACCAUAGAGCGGUUAGCCGCUCACCGAGAUCGGAAGAGCACACGU
B10: target 1 insG 3' of 11,insG 3' of 4 (mixed)
RNA 1: CACCCGUGCAAAAAUGCAGGGGUCUAAAACUGAGCGGAUAACCUCUCUAUGG
RNA 2: GGGAAUGGAUCCACAUCUACGAAUUCGUACCAUAGAGAGGUGUAUCCGCGUCACCGAGAUCGGAAGAGCACACGU
B11: target 1 insA 3' of 21,insA 3' of 3 (mixed)
RNA 1: CACCCGUGCAAAAAUGCAGGGGUCUAAAACUGAGCGGAUAACCUCUCUAUGG
RNA 2: GGGAAUGGAUCCACAUCUACGAAUUCGUACCAAUAGAGAGGUUAUCCGCUACACCGAGAUCGGAAGAGCACACGU
B12: target 1 C6A,U10A (mixed)
RNA 1: CACCCGUGCAAAAAUGCAGGGGUCUAAAACUGAGCGGAUAACCUCUCUAUGG
RNA 2: GGGAAUGGAUCCACAUCUACGAAUUCGUACCAUAGAGAGGUAAUCAGCUCACCGAGAUCGGAAGAGCACACGU
B13: target 1 insA 3' of 21,insU 3' of 20 (mixed)
RNA 1: CACCCGUGCAAAAAUGCAGGGGUCUAAAACUGAGCGGAUAACCUCUCUAUGG
RNA 2: GGGAAUGGAUCCACAUCUACGAAUUCGUACCAAUUAGAGAGGUUAUCCGCUCACCGAGAUCGGAAGAGCACACGU
B14: target 1 A1C,G5A (mixed)
RNA 1: CACCCGUGCAAAAAUGCAGGGGUCUAAAACUGAGCGGAUAACCUCUCUAUGG
RNA 2: GGGAAUGGAUCCACAUCUACGAAUUCGUACCAUAGAGAGGUUAUCCACUCCCCGAGAUCGGAAGAGCACACGU
B15: target 1 insC 3' of 8,insA 3' of 6 (mixed)
RNA 1: CACCCGUGCAAAAAUGCAGGGGUCUAAAACUGAGCGGAUAACCUCUCUAUGG
RNA 2: GGGAAUGGAUCCACAUCUACGAAUUCGUACCAUAGAGAGGUUAUCCCAGCUCACCGAGAUCGGAAGAGCACACGU
B16: target 1 insG 3' of 18,insA 3' of 6 (mixed)
RNA 1: CACCCGUGCAAAAAUGCAGGGGUCUAAAACUGAGCGGAUAACCUCUCUAUGG
RNA 2: GGGAAUGGAUCCACAUCUACGAAUUCGUACCAUAGGAGAGGUUAUCCAGCUCACCGAGAUCGGAAGAGCACACGU
B17: target 1 G5A (mixed)
RNA 1: CACCCGUGCAAAAAUGCAGGGGUCUAAAACUGAGCGGAUAACCUCUCUAUGG
RNA 2: GGGAAUGGAUCCACAUCUACGAAUUCGUACCAUAGAGAGGUUAUCCACUCACCGAGAUCGGAAGAGCACACGU
B18: target 1 G5U,C22A (mixed)
RNA 1: CACCCGUGCAAAAAUGCAGGGGUCUAAAACUGAGCGGAUAACCUCUCUAUGG
RNA 2: GGGAAUGGAUCCACAUCUACGAAUUCGUAACAUAGAGAGGUUAUCCUCUCACCGAGAUCGGAAGAGCACACGU
B19: target 1 A9U,G15U (mixed)
RNA 1: CACCCGUGCAAAAAUGCAGGGGUCUAAAACUGAGCGGAUAACCUCUCUAUGG
RNA 2: GGGAAUGGAUCCACAUCUACGAAUUCGUACCAUAGAUAGGUUUUCCGCUCACCGAGAUCGGAAGAGCACACGU
B20: target 1 G17U,A20G (mixed)
RNA 1: CACCCGUGCAAAAAUGCAGGGGUCUAAAACUGAGCGGAUAACCUCUCUAUGG
RNA 2: GGGAAUGGAUCCACAUCUACGAAUUCGUACCGUAUAGAGGUUAUCCGCUCACCGAGAUCGGAAGAGCACACGU
B21: target 1 insA 3' of 6,insG 3' of 3 (mixed)
RNA 1: CACCCGUGCAAAAAUGCAGGGGUCUAAAACUGAGCGGAUAACCUCUCUAUGG
RNA 2: GGGAAUGGAUCCACAUCUACGAAUUCGUACCAUAGAGAGGUUAUCCAGCUGCACCGAGAUCGGAAGAGCACACGU
B22: target 1 A1U,G5A (mixed)
RNA 1: CACCCGUGCAAAAAUGCAGGGGUCUAAAACUGAGCGGAUAACCUCUCUAUGG
RNA 2: GGGAAUGGAUCCACAUCUACGAAUUCGUACCAUAGAGAGGUUAUCCACUCUCCGAGAUCGGAAGAGCACACGU
B23: target 1 C7U,G13A (mixed)
RNA 1: CACCCGUGCAAAAAUGCAGGGGUCUAAAACUGAGCGGAUAACCUCUCUAUGG
RNA 2: GGGAAUGGAUCCACAUCUACGAAUUCGUACCAUAGAGAAGUUAUUCGCUCACCGAGAUCGGAAGAGCACACGU
B24: target 1 insU 3' of 18,insC 3' of 1 (mixed)
RNA 1: CACCCGUGCAAAAAUGCAGGGGUCUAAAACUGAGCGGAUAACCUCUCUAUGG
RNA 2: GGGAAUGGAUCCACAUCUACGAAUUCGUACCAUAUGAGAGGUUAUCCGCUCACCCGAGAUCGGAAGAGCACACGU
B25: target 1 C2G,C4U (mixed)
RNA 1: CACCCGUGCAAAAAUGCAGGGGUCUAAAACUGAGCGGAUAACCUCUCUAUGG
RNA 2: GGGAAUGGAUCCACAUCUACGAAUUCGUACCAUAGAGAGGUUAUCCGUUGACCGAGAUCGGAAGAGCACACGU
B26: target 1 insC 3' of 1 (mixed)
RNA 1: CACCCGUGCAAAAAUGCAGGGGUCUAAAACUGAGCGGAUAACCUCUCUAUGG
RNA 2: GGGAAUGGAUCCACAUCUACGAAUUCGUACCAUAGAGAGGUUAUCCGCUCACCCGAGAUCGGAAGAGCACACGU
B27: target 1 G13A,A18U (mixed)
RNA 1: CACCCGUGCAAAAAUGCAGGGGUCUAAAACUGAGCGGAUAACCUCUCUAUGG
RNA 2: GGGAAUGGAUCCACAUCUACGAAUUCGUACCAUUGAGAAGUUAUCCGCUCACCGAGAUCGGAAGAGCACACGU

In the series the target is T1, EsCas13d, nuclease-dead. The series can be described thus: crRNA (strand 1, pre-loaded); Mg2+; 40 mM Tris-HCl pH 7.5, 150 mM NaCl, 6 mM MgCl2, 1 mM DTT, 0.1% Tween-20, 0.2 mg/ml BSA; 25 C; 10 min per concentration, then washed. The conditions noted are these: tags: His6-TwinStrep-SUMO cleaved; N-terminal SNAP kept (SNAP-Surface 488); label: 3' end held by stalled T7 RNA polymerase.
For the molecule B1, the Kd is 0.0104 ± 0.0011 µM.

As for B2, the Kd was found to be 0.083 ± 0.016 µM.

On to B3, for which the Kd came out at 0.0335 ± 0.0026 µM.

For the molecule B4, the Kd turned out to be 0.0062 ± 0.0004 µM. This Kd is about 5.4-fold lower than that of the molecule before.

Turning to B5, binding was put at a Kd of 0.0274 ± 0.0013 µM.

The molecule B6 showed a Kd of 0.08 ± 0.021 µM.

Regarding B7, the Kd came out at 0.046 ± 0.004 µM.

Consider B8, for which binding was put at a Kd of 0.00707 ± 0.00035 µM.

For the molecule B9, the Kd was ~0.08 µM.

Regarding B10, the Kd is 0.054 ± 0.013 µM.

As for B11, the equilibrium dissociation constant (Kd) came to 0.0122 ± 0.0006 µM.

Molecule B12 showed a Kd of 0.0077 ± 0.0004 µM.

Molecule B13 gave a Kd of 0.0197 ± 0.0019 µM.

B14 gave a Kd of 0.026 ± 0.009 µM.

As to B15, binding was put at a Kd of 0.0177 ± 0.0009 µM.

For B16, binding was put at a Kd of 0.073 ± 0.025 µM.

Take B17: the Kd amounted to 0.051 ± 0.008 µM.

B18 displayed a Kd of 0.054 ± 0.014 µM.

Molecule B19 gave a Kd of 0.046 ± 0.011 µM.

Molecule B20 registered a Kd of 0.04 ± 0.006 µM.

B21 displayed a Kd of 0.0131 ± 0.0005 µM.

Turning to B22, the Kd is 0.034 ± 0.006 µM.

As for B23, the Kd stood at 0.0062 ± 0.0007 µM. This Kd lies about 5.5-fold lower than the previous one.

Turning to B24, binding was characterised by a dissociation constant (Kd) of 0.0235 ± 0.002 µM.

The molecule B25 returned a Kd of 0.054 ± 0.016 µM.

In the case of B26, the Kd came to 0.0091 ± 0.0006 µM. This Kd lies about 5.9-fold lower than the previous one.

B27: binding was put at a Kd of 0.0225 ± 0.002 µM.
